B1: TPR t1 (parent)
chain: GACCAAUCUGCCCUCAGAGCUCGAGAACAUCUUCGGAUGCAGAGGAGGCAGGCUUCGGUGGCGCGAUAGCGCCAACGUCCUCAACCUCCAAUGCAUCCCACCACAUGAUGAUGCCUGAAGAGCCUUGGUUUUUUG

Variants of: B1
Assay: polymerase ribozyme fitness, log enrichment relative to wild type (log ratio); higher = more active; in vitro selection for triplet polymerase activity
Outline: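 PCR was used to build mutant libraries for each subunit of a heterodimeric triplet polymerase ribozyme, which were then transcribed. A single in vitro selection round, in triplicate, used a frozen incubation at −7 °C and recovered extended constructs by gel excision, streptavidin beads and RT-PCR. Fitness is the logarithm of genotype enrichment relative to wild-type enrichment, averaged over replicates with inverse-variance weights. The logarithm is base 2, and after Illumina sequencing only genotypes with ≥10 input reads and ≥1 read per output were kept.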

Variant	polymerase ribozyme fitness (log ratio)
G61C U112A	-0.897
C62U A84C	-1.06
C62U A84C C89A C123U	-1.62
G63A C73A C114G	-5.85
G61C C76U	-3.1
G61C G107A U112A G117U	-6.86
G61C C85U U116A C123U U129A	-6.64
G61C G93U U130A	-3.65
G63C C85A	-3.22
G63U U78C A108G	-6.17
C64G A84U U112A	-6.14
G63C C115U	-1.32
G63A G77C A119U	-2.08
C62U C89U	-0.519
G61U G128A	-1.7
G63A G93A C97U U130A	-2.59
C64A C82G A121C	-7.17
G61C C104A	-3.92
C64U A111C	0.336
C64U A111U	-3.24
C64U C82U U109A G120U	-6.78

Variant	polymerase ribozyme fitness (log ratio)
G61U A90U	-2.11
G63C C79G	-0.109
G63A G128U	-3.07
G63A C80A	-4.42
G63U C102A	-3.78
C62G A105G	-4.99
G61U U96A	-0.797
G63C G117C A119U	-4.1
G61U C97G G113U	-5.53
C62A C114A	-2.71
C62U	-0.118
C62G	-1.53
C62A	-0.872
C62U A121G	2.41
C62A A103U	-5.71
C62U C98U A111U G120C	-4.23
C62U U78G C86U	-0.761
G63U G69C	-4.76
G61C U78G U112A G128A	-6.61
C62U C72U	-1.03
G63U C89U	-1.85

Variant	polymerase ribozyme fitness (log ratio)
G63U C123A	-0.845
C62A U78A A91U A111C	-4.78
G61U A68U U87A C114G	-6.91
G63A U112C	0.988
G63C C80U	-2.4
G63A C115G	-3.51
C62U C97A	-5.14
C62A G117C	-4.72
G63U G128A	-3.29
G63C G117U G120A	-2.53
G61C G107C C114A A119U	-6.57
G61U A100C U106A U112A	1.26
C62A G77U C114G	-4.81
G61U C98A	-3.78
G61U C98U	-1.55
G63U G110A	-1.81
G63U G110U	-3.12
G63A A84U C86A U125G	-2.61
G63C G77C	-2.42
G61C U109A	-4.34
G61U A100C	-0.248

Variant	polymerase ribozyme fitness (log ratio)
G63C C102A	-2.59
G63A U96G C124U	0.174
G61U U87A A121U	1.5
C62U G63U A103C C114A	-4.66
G61C C94U U130A U131G	-3.54
C62A C79U C88G G135U	-2.35
C64U C82U A95G	-0.455
G63C C70U A90G	0.0962
G61C C89U G113C G120C	-4.9
G63C C85U A111C G122C	-3.75
G61C G63C	-3.6
G63A U81C A90U	-4.66
C62U G69A	-3.76
G61U U125G	-0.883
G61C G113U	-4.1
C62A A83U A90U A91C	-3.43
G61C G93U	-2.81
G63U A84U C86A G128U U130C	-3.81
G61U	0.14
C62A C82A C85U	-2.3
G63C U126G	-1.74

— the RNAGym collection of RNA variant scans (doi:10.1073/pnas.2313332121)
